Test results from patent US20220144937A1 (JIANGSU HENGRUI MEDICINE, published 2022).
Where a chain is given by its changes, count along the chain named.

T1: human IL-5 with his-tag (rhIL-5-his) (human, UniProt P05113 20-134)
T1 construct: It was expressed in HEK293 and purified from the supernatant; also called HuIL-5; recombinant human IL-5
T1 sequence: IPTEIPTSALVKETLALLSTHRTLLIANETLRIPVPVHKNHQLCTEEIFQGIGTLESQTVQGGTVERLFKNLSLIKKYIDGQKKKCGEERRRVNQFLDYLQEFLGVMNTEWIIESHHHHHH

T2: cyno IL-5 with his-tag (cyno (paragraph 156 says rhesus), UniProt P48093 20-134 (rhesus entry))
T2 construct: also called rhesus IL-5 with His-tag; monkey IL-5
T2 sequence: T1 sequence with T7A, D80G

B1: mAb1780 (antibody, V domains shown)
VH: QVKLLQSGAALVKPGDSVKMSCKASDYTFTEYLIHWVKQSQGRSLEWIGYINPYSGGTVYNEKFKSKATLTVDKFSSTAYMEFRRLTFEDSAIYYCARDGGYSDPLDYWGQGVMVTVSS
VL: DTVLTQSPALAVSPGERVSISCRASEGLTSYMHWYQQKPGQQPKLLIYKASNLASGVPARFSGSGSGTDFTLTIDPVEADDAATYFCQQNWNDPWTFGGGTKLELK
notes: Murine hybridoma antibody
B2: mAb1773 (antibody, V domains shown)
VH: EVQLQQSLAELVRPGASVTLSCTASGFNIKNTYIHWVKQRPEQGLEWIGRIDPANGDTKHGPKFQGKATITADTSSNTAYLQFSSLTSEDTAIYYCFRYGIYPDHWGQGTPLTVSS
VL: QIVLTQSPALMSASPGEKVTMTCSASSSVNYIYWYQQKPRSSPKPWIYLTATLASGVPARFSGSGSGTSFSLTISRMEAEDAATYYCQQWNSYPYTFGGGTKLEIE
notes: Murine hybridoma antibody
B3: mAb1779 (antibody, V domains shown)
VH: QVKLLQSGAALVKPGDSVKMSCKASGYTFTDYIIHWVKQSHGKSLEWIGYFNPNSGGSNYNENFKRKATLTADKSSSTAYLEFSRVTSEDSAIYYCGRRIAWDHWYFDFWGPGTMVTVSS
VL: DIQMTQSPASLSASLGETVSIECLASEGISNDVAWYQQKSGRSPQLLVYAASRLQDGVPSRFSGSGSGTRYFFKISGMQPEDEADYFCQQGYKTPLTFGSGTKLEIK
notes: Murine hybridoma antibody
B4: h1706-006 (antibody, human IgG1, kappa, V domains shown)
VH: EVQLVESGGGLVQPGGSLRLSCAASGFTFSHYYMAWVRQAPGKGLEWVSSINYEGNSAYYGDSVKGRFTISRDNSKNTLYLQMNSLRAEDTAVYYCATETLRESLDYWGQGTMVTVSS
VL: DIQMTQSPSSVSASVGDRVTITCRASQDIGNYLSWYQQKPGKSPKLLIYSASNLEVGVPSRFSGSGSGTDFTLTISSLQPEDFATYYCLQHKQFPRTFGGGTKVEIKR
notes: Constant regions as for h1706-003
B5: h1706-003 (antibody, human IgG1, kappa, V domains shown)
VH: B4 VH
VL: B4 VL with S43A
B6: h1773-007 (antibody, human IgG1, kappa, V domains shown)
VH: EVQLVESGGGLVQPGGSLKLSCAASGFTISNTYIHWVKQASGKGLEWIGRIDPAVGDTKHGPKFQGRFTISADDSKNTAYLQMNSLKTEDTAVYYCFRYGIYPDHWGQGTLVTVSS
VL: DIQLTQSPSSLSASVGDRVTITCSASSSVNYIYWYQQKPGKSPKPWIYLTATLASGVPSRFSGSGSGTDFTLTISSLQPEDFATYYCQQWNSYPYTFGGGTKVEIKR
B7: h1780-017 (antibody, human IgG1, kappa, V domains shown)
VH: EVQLVQSGAEVKKPGASVKVSCKASGYTFTEYLIHWVRQAPGQGLEWIGYINPYSGGTVYNEKFKSRATLTVDKSISTAYMEFSRLRSDDTAVYYCARDGGYSDPLDYWGQGTMVTVSS
VL: DTVLTQSPATLSLSPGERATLSCRASEGLTSYMHWYQQKPGQAPRLLIYKASNLASGVPARFSGSGSGTDFTLTISSLEPEDFATYFCQQNWNDPWTFGGGTKVEIKR
B8: h1779-014 (antibody, human IgG1, kappa, V domains shown)
VH: EVQLVQSGAEVKKPGASVKVSCKASGYTFTDYIIHWVKQAPGQGLEWIGYFNPNSGGSNYNENFKRKATMTADKSISTAYLEFSRLRSEDTAVYYCARRIAWDHWYFDFWGQGTMVTVSS
VL: DIQMTQSPSSLSASVGDRVTITCLASEGISNDVAWYQQKPGKSPKLLVYAASRLQDGVPSRFSGSGSGTDYTFTISSLQPEDIATYYCQQGYKTPLTFGQGTKLEIKR
notes: See recheck
B9: h1705-007 (antibody, human IgG1, kappa, V domains shown)
VH: B4 VH with N52S, N56D, S57I, A58T, T98S, E99Q, L105F, M113L
VL: B4 VL with G30A, S50G, A51T, G66R, H91D, Q93E
B10: h1705-003 (antibody, human IgG1, kappa, V domains shown)
VH: B4 VH with N52S, N56D, S57I, A58T, T98K, E99Q, L105F, M113L
VL: B4 VL with G30A, S43A, S50G, A51T, H91D, Q93E
B11: h1705-004 (antibody, human IgG1, kappa, V domains shown)
VH: B4 VH with N52S, N56D, S57I, A58T, T98S, E99Q, L105F, M113L
VL: B4 VL with G30A, S43A, S50G, A51T, H91D, Q93E
B12: h1705-005 (antibody, human IgG1, kappa, V domains shown)
VH: B4 VH with S49T, N52S, N56D, S57I, A58T, V93T, T98S, E99Q, L105F, M113L
VL: B4 VL with G30A, S43A, S50G, A51T, H91D, Q93E
B13: h1705-006 (antibody, human IgG1, kappa, V domains shown)
VH: B4 VH with N52S, N56D, S57I, A58T, T98K, E99Q, L105F, M113L
VL: B4 VL with G30A, S50G, A51T, G66R, H91D, Q93E
B14: h1705-009 (antibody, human IgG1, kappa, V domains shown)
VH: B4 VH with N52S, N56D, S57I, A58T, T98K, E99Q, L105F, M113L
VL: B4 VL with G30A, L47V, S50G, A51T, G66R, T69S, F71Y, Y87F, H91D, Q93E
B15: h1705-010 (antibody, human IgG1, kappa, V domains shown)
VH: B4 VH with N52S, N56D, S57I, A58T, T98S, E99Q, L105F, M113L
VL: B4 VL with G30A, L47V, S50G, A51T, G66R, T69S, F71Y, Y87F, H91D, Q93E
B16: h1705-011 (antibody, human IgG1, kappa, V domains shown)
VH: B4 VH with S49T, N52S, N56D, S57I, A58T, V93T, T98S, E99Q, L105F, M113L
VL: B4 VL with G30A, L47V, S50G, A51T, G66R, T69S, F71Y, Y87F, H91D, Q93E
B17: Hu39D10 (antibody, human IgG4 S228P, kappa, V domains shown)
VH: EVQLVESGGGLVQPGGSLRLSCAVSGLSLTSNSVNWIRQAPGKGLEWVGLIWSNGDTDYNSAIKSRFTISRDTSKSTVYLQMNSLRAEDTAVYYCAREYYGYFDYWGQGTLVTVSS
VL: DIQMTQSPSSLSASVGDRVTITCLASEGISSYLAWYQQKPGKAPKLLIYGANSLQTGVPSRFSGSGSATDYTLTISSLQPEDFATYYCQQSYKFPNTFGQGTKVEVKR
notes: Anti-IL-5 antibody of WO2012083370A1, used as positive control; also called positive control; positive antibody
B18: h1706-007 (antibody, human IgG1, kappa, V domains shown)
VH: B4 VH with S49T, V93T
VL: B4 VL
B19: h1706-004 (antibody, human IgG1, kappa, V domains shown)
VH: B4 VH with S49T, V93T
VL: B4 VL with S43A

The molecules below were run against T1, human IL-5 with his-tag (rhIL-5-his) (assay: Biacore).
Method: (§1) The affinity of the murine IL-5 antibody to be tested with human IL-5 was measured by Biacore T200 (GE) instrument.
(§2) The protein A biosensor chip was used to affinity capture of the molecules to be tested, and then the antigen (recombinant human and cyno IL-5 prepared in Example 1) flowed through the surface of the chip, and the reaction signal was detected in real time with the Biacore T200 instrument to obtain the binding and dissociation curves. After the dissociation of each experimental cycle was completed, the biosensor chip was washed and regenerated with glycine-hydrochloric acid regeneration solution (pH 1.5). BIA evaluation version 4.1 GE software was used to fit the data against (1:1) Langmuir model, and the affinity value was obtained and shown in Table 13.

| Molecule | Kd [nM] |
| --- | --- |
| B1 | 0.0899 |
| B2 | 0.129 |
| B3 | 0.458 |

Each molecule was assayed against T1, human IL-5 with his-tag (rhIL-5-his) (assay: Biacore T200, antibody captured on protein A chip, antigen in flow, 1:1 Langmuir).
Method: as §1, §2

| Molecule | Kd [nM] |
| --- | --- |
| B1 | 0.0899 |
| B2 | 0.129 |
| B3 | 0.458 |

These molecules were tested against T2, cyno IL-5 with his-tag in the same assay as above.
Method: as §1, §2

| Molecule | Kd [nM] |
| --- | --- |
| B1 | 0.312 |
| B2 | 0.476 |
| B3 | 9.98 |

Biological target: T1, human IL-5 with his-tag (rhIL-5-his)
Experiment: as above
Remark: another data set of the same source
Method: The affinity of the humanized IL-5 antibody to be tested with human IL-5 was measured by Biacore T200 (GE) instrument.
as §2, with “(prepared” for “(recombinant human and cyno IL-5 prepared”, “14.” for “13.”

| Molecule | Kd [nM] |
| --- | --- |
| B4 | 0.0173 |
| B5 | 0.0189 |
| B6 | 0.207 |
| B7 | 0.0778 |
| B8 | 0.412 |
| B9 | 0.0221 |
| B10 | 3.35 |
| B11 | 0.0214 |
| B12 | 0.0216 |
| B13 | 4.11 |
| B14 | 4.55 |
| B15 | 0.0205 |
| B16 | 0.023 |

The molecules below were run against T1, human IL-5 with his-tag (rhIL-5-his) (assay: FACS blocking: biotin-IL-5 (100 ng/ml) binding to IL-5Rα/β-CHOS cells, antibody diluted).
Method: Particular method was as follows: CD-CHO comprising […] and […] zeozin was used to culture CHO-S-IL-5Rα and β. During cell culture, the concentration should not exceed 3×10⁶ cells/ml. IL-5Rα/β-CHOS cells in good condition were centrifuged (at 1000 rpm, 5 min), and washed once with 10% FBS in PBS, and the cells were counted, the cell concentration was adjusted to 4×10⁶ cells/ml, and 25 μl was taken out and added into a round-bottom 96-well plate. The antibody to be tested was diluted with PBS solution comprising 10% FBS. The initial concentration was 200 μg/ml, and diluted at 1:10 for 8 gradient dilutions. 25 μl of 100 ng/ml IL-5 labeled by a biotin labeling kit (Tojin Chemical, LK03) was added, and fully mixed with 50 μl of diluted antibody at each concentration, and added into 96-well plate that has been added with cells, and incubated at 4° C. for 1 hour. After the incubation, the sample was centrifuged at 4° C. (400 g, 5 min), and the supernatant was removed, the plated was washed with 200 μl of pre-cooled PBS by centrifugation, repeated for twice; PE-Avidin secondary antibody diluted at 1:1333 was added and incubated in the dark at 4° C. for 40 min, centrifuged at 4° C.

| Molecule | IC50 [µg/mL] |
| --- | --- |
| IgG (antibody) | 8.78 |
| B17 | 0.0251 |
| B7 | 0.016 |
| B8 | 0.0496 |

What follows are molecules tested against T1, human IL-5 with his-tag (rhIL-5-his) (assay: cell-based or functional assay).

| Molecule | IC50 of inhibition of IL-5 induced TF1 cell proliferation [nM] |
| --- | --- |
| B17 | 0.3 |
| B4 | 0.34 |
| B5 | 0.31 |
| B18 | 0.28 |
| B6 | 0.38 |
| B7 | 0.16 |
| B8 | 0.2 |
| B9 | 0.25 |
| B11 | 0.3 |
| B12 | 0.3 |
| B15 | 0.3 |
| B16 | 0.28 |
| B19 | 0.3 |

Biological target: T1, human IL-5 with his-tag (rhIL-5-his)
Experiment: cell-based or functional assay
Remark: another data set of the same source

| Molecule | IC50 of blocking IL-5 induced eosinophil adhesion [µg/mL] |
| --- | --- |
| B17 | 0.0118 |
| B7 | 0.0212 |
